According to US11452764B2, “Inhibiting FAK-AKT interaction to inhibit metastasis” (Board of Trustees of Michigan State University, priority 2017, dated 2022):

Legend:
CT-26 cells = experiment: Pressure-induced adhesion of CT-26 cells inducibly expressing GFP-FAK-NT1; type: cell-based, murine
Description: A stable CT-26 cell line was generated per ARIAD-ARGENT protocols and GFP-FAK-NT1 expression was induced using 50 nM of the provided non-immunosuppressive rapalog, AP21967 with an equal volume of ethanol used as the control vehicle. Forty eight hours after induction, the cells were trypsinized for adhesion experiments.
Experimental pressure conditions were controlled using an airtight box with inlet and outlet valves, thumb screws, a pressure gauge and an O-ring for an airtight (11, 25). The box was prewarmed to 37° C. for 1 hour to […] minimize temperature fluctuations experienced by the cells. The gas used for pressurization was a filtered 5% CO2/95% air mixture consistent with the atmosphere in which the cells were routinely cultured. The temperature was maintained within ±2° C. and the pressure within ±1.5 mmHg.
100,000 Caco-2 or CT-26 cells were seeded to collagen I coated 6-well plates under ambient or increased pressure conditions for 30 minutes. Non-adherent cells were washed away, and the remainder fixed with 0.01 M NaIO4, 0.75 M lysine, 0.0375 M sodium phosphate buffer, pH 7.4, and 2% paraformaldehyde on ice for 1 hour. The adherent cells were counted microscopically in at least 20 random high power fields per well under a fluorescent microscope. […]

Caco-2 cells = experiment: Pressure-induced adhesion of Caco-2 cells transiently expressing GFP-FAK-NT1; type: cell-based, human; conditions: Caco-2, transient expression, vs GFP control
Description: Caco-2 cells were plated on p100 dishes at 30-35% confluence one day prior to transfection. The constructed or empty plasmids were transfected into Caco-2 cells at final concentrations of 2 μg/ml plasmid and 5 μg/ml Lipofectamine 2000. Five hours after transfection, the medium was replaced with 15 ml pre-warmed Caco-2 media without antibiotics. Forty eight hours after DNA transfection, the cells were trypsinized for adhesion or pull-down experiments.
Experimental pressure conditions were controlled using an airtight box with inlet and outlet valves, thumb screws, a pressure gauge and an O-ring for an airtight (11, 25). The box was prewarmed to 37° C. for 1 hour to […] minimize temperature fluctuations experienced by the cells. […]
100,000 Caco-2 or CT-26 cells were seeded to collagen I coated 6-well plates under ambient or increased pressure conditions for 30 minutes. […] The adherent cells were counted microscopically in at least 20 random high power fields per well under a fluorescent microscope.
To test whether this interaction of NT1 with Akt1 might have biological effects, we evaluated the effect of overexpressing NT1 in Caco-2 cells on the adhesive response to increased extracellular pressure, which requires FAK-Akt1 interaction. […]

B1: GFP-FAK-NT1: GFP fusion of FAK-NT1 (residues 1-126) expressed transiently or inducibly in cells (protein)
chain: MAAAYLDPNLNHTPNSSTKTHLGTGMERSPGAMERVLKVFHYFESNSEPTTWASIIRHGDATDVRGIIQKIVDSHKVKNVACYGFRLSHLRSEEVHWLHVDMGVSSVREKYELAHPPEEWKYELRI
modifications: left off: large carriers
notes: GFP fusion of FAK-NT1 (residues 1-126) expressed transiently or inducibly in cells
Stimulation of cell adhesion by increased pressure (CT-26 cells; CT26, expression induced 48 hours before, 15 mmHg 30 minutes, vs GFP control): prevented the stimulation of cell adhesion by increased pressure | Basal levels of adhesion (CT-26 cells; CT26, inducible expression): reduced | Pressure-induced adhesion (Caco-2 cells; 15 mmHg increased pressure 30 minutes): inhibited | Basal levels of adhesion (Caco-2 cells; ambient pressure): reduced
